According to US20120028811, “DEVICE FOR RAPID IDENTIFICATION OF NUCLEIC ACIDS FOR BINDING TO SPECIFIC CHEMICAL TARGETS” (DONGGUK UNIVERSITY, published 2012):

Biological target: T1, TATA-binding protein (TBP) (UniProt P13393 P13393:1-240)
T1 sequence: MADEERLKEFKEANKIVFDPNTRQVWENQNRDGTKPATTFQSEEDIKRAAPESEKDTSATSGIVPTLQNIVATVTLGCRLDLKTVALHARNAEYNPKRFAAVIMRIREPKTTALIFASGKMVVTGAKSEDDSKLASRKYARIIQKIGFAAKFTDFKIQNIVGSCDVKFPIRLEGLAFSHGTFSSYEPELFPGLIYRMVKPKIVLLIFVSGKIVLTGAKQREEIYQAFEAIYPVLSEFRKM
Assay: fluorescence microscopy of TBP in sol-gel; binding buffer 25 mM Tris pH 8, 100 mM NaCl, 25 mM KCl, 10 mM MgCl2
Settings: tags: His-tag, full length, expressed in E. coli BL21-DE3; label: 5'-Cy3 on top strand
Experimental: Sol-gels with TBP were enclosed with the PDMS lid. After encapsulation, the channels were washed extensively with the PBS buffer (binding buffer) by connecting one end of the main channel to a syringe pump (Pump 11, Harvard Apparatus, Holliston, Mass.). Following the pre-washing step, the silicate gel spot was blocked for 1 hour with 1× binding buffer that contained 25 mM Tris-Cl (pH 8), 100 mM NaCl, 25 mM KCl and 10 mM MgCl₂ with 5% skim milk. The blocking buffer works as a nonspecific competitor in the reaction mixture, which helps to achieve the selection of high-affinity molecules. […] After binding, the interaction of immobilized TBP proteins and Cy-3 labeled TATA DNA was monitored by fluorescence microscopy.
The Cy-3-labeled TATA DNA has a high affinity for TBP similar to that of the conventionally selected aptamers. […] The measured melting point of TATA DNA was 72° C. […] The fluorescence intensity of the sol-gel except for the negative sol-gel was detected under the fluorescent microscope (FIG. 6).

B1: TATA DNA (dsDNA)
DNA 1: GGGAATTCGGGCTATAAAAGGGGGATCCGG
DNA 2: CCGGATCCCCCTTTTATAGCCCGAATTCCC
B1: binds.
